Test results: patent US20090155236A1, “Peptide sequence for modulation of delta protein kinase c” (NATIONAL INSTITUES OF HEALTH (NIH), U.S. DEPT OF HEALTH AND …, priority 2004, published 2009)

Biological target: recombinant full-length delta PKC (rat)
Assay: ELISA, both in the absence and in the presence of calcium

percent binding: 70%
B1: annexin I (protein)
chain: AMVSEFLKQAWFIENEEQEYVQTVKSSKGGPGSAVSPYPTFNPSSDVAALHKAIMVKGVDEATIIDILTKRNNAQRQQIKAAYLQETGKPLDETLKKALTGHLEEVVLALLKTPAQFDADELRAAMKGLGTDEDTLIEILASRTNKEIRDINRVYREELKRDLAKDITSDTSGDFRNALLSLAKGDRSEDFGVNEDLADSDARALYEAGERRKGTDVNVFNTILTTRSYPQLRRVFQKYTKYSKHDMNKVLDLELKGDIEKCLTAIVKCATSKPAFFAEKLHQAMKGVGTRHKALIRIMVSRSEIDMNDIKAFYQKMYGISLCQAILDETKGDYEKILVALCGGN
